Literature values in US20200069786A1, “COMPOSITION AND PROCESS FOR PREPARING VACCINE” (TREOS BIO ZRT., priority 2018, published 2020).
Like-named read-outs stand apart in the source and are kept apart here.

B1: SPAN-Xc (protein, UniProt Q9NY87 1-97, looked up)
Sperm protein associated with …: MDKQSSAGGVKRSVPCDSNEANEMMPETSSGYSDPQPAPKKLKTSESSTILVVRYRRNVKRTSPEELVNDHARENRINPLQMEEEEFMEIMVEIPAK
B2: FTHL17 (protein, UniProt Q9BXU8 1-183, looked up)
Ferritin heavy …: MATAQPSQVRQKYDTNCDAAINSHITLELYTSYLYLSMAFYFNRDDVALENFFRYFLRLSDDKMEHAQKLMRLQNLRGGHICLHDIRKPECQGWESGLVAMESAFHLEKNVNQSLLDLYQLAVEKGDPQLCHFLESHYLHEQVKTIKELGGYVSNLRKICSPEAGLAEYLFDKLTLGGRVKET
B3: SCP-1 (protein, UniProt Q15431 1-976, looked up)
Synaptonemal complex protein 1: MEKQKPFALFVPPRSSSSQVSAVKPQTLGGDSTFFKSFNKCTEDDFEFPFAKTNLSKNGENIDSDPALQKVNFLPVLEQVGNSDCHYQEGLKDSDLENSEGLSRVYSKLYKEAEKIKKWKVSTEAELRQKESKLQENRKIIEAQRKAIQELQFGNEKVSLKLEEGIQENKDLIKENNATRHLCNLLKETCARSAEKTKKYEYEREETRQVYMDLNNNIEKMITAFEELRVQAENSRLEMHFKLKEDYEKIQHLEQEYKKEINDKEKQVSLLLIQITEKENKMKDLTFLLEESRDKVNQLEEKTKLQSENLKQSIEKQHHLTKELEDIKVSLQRSVSTQKALEEDLQIATKTICQLTEEKETQMEESNKARAAHSFVVTEFETTVCSLEELLRTEQQRLEKNEDQLKILTMELQKKSSELEEMTKLTNNKEVELEELKKVLGEKETLLYENKQFEKIAEELKGTEQELIGLLQAREKEVHDLEIQLTAITTSEQYYSKEVKDLKTELENEKLKNTELTSHCNKLSLENKELTQETSDMTLELKNQQEDINNNKKQEERMLKQIENLQETETQLRNELEYVREELKQKRDEVKCKLDKSEENCNNLRKQVENKNKYIEELQQENKALKKKGTAESKQLNVYEIKVNKLELELESAKQKFGEITDTYQKEIEDKKISEENLLEEVEKAKVIADEAVKLQKEIDKRCQHKIAEMVALMEKHKHQYDKIIEERDSELGLYKSKEQEQSSLRASLEIELSNLKAELLSVKKQLEIEREEKEKLKREAKENTATLKEKKDKKTQTFLLETPEIYWKLDSKAVPSQTVSRNFTSVDHGISKDKRDYLWTSAKNTLSTPLPKAYTVKTPTKPKLQQRENLNIPIEESKKKRKMAFEFDINSDSSETTDLLSMVSEEETLKTLYRNNNPPASHLCVKTPKKAPSSLTTPGSTLKFGAIRKMREDRWAVIAKMDRKKKLKEAEKLFV
B4: AKAP-3 (protein, UniProt O75969 1-853, looked up)
A-kinase anchor protein 3: MSEKVDWLQSQNGVCKVDVYSPGDNQAQDWKMDTSTDPVRVLSWLRRDLEKSTAEFQDVRFKPGESFGGETSNSGDPHKGFSVDYYNTTTKGTPERLHFEMTHKEIPCQGPRAQLGNGSSVDEVSFYANRLTNLVIAMARKEINEKIDGSENKCVYQSLYMGNEPTPTKSLSKIASELVNETVSACSRNAAPDKAPGSGDRVSGSSQSPPNLKYKSTLKIKESTKERQGPDDKPPSKKSFFYKEVFESRNGDYAREGGRFFPRERKRFRGQERPDDFTASVSEGIMTYANSVVSDMMVSIMKTLKIQVKDTTIATILLKKVLLKHAKEVVSDLIDSFLRNLHSVTGTLMTDTQFVSAVKRTVFSHGSQKATDIMDAMLRKLYNVMFAKKVPEHVRKAQDKAESYSLISMKGMGDPKNRNVNFAMKSETKLREKMYSEPKSEEETCAKTLGEHIIKEGLTLWHKTQQKECKSLGFQHAAFEAPNTQRKPASDISFEYPEDIGNLSLPPYPPEKPENFMYDSDSWAEDLIVSALLLIQYHLAQGGRRDARSFVEAAGTTNFPANEPPVAPDESCLKSAPIVGDQEQAEKKDLRSVFFNFIRNLLSETIFKRDQSPEPKVPEQPVKEDRKLCERPLASSPPRLYEDDETPGALSGLTKMAVSQIDGHMSGQMVEHLMNSVMKLCVIIAKSCDASLAELGDDKSGDASRLTSAFPDSLYECLPAKGTGSAEAVLQNAYQAIHNEMRGTSGQPPEGCAAPTVIVSNHNLTDTVQNKQLQAVLQWVAASELNVPILYFAGDDEGIQEKLLQLSAAAVDKGCSVGEVLQSVLRYEKERQLNEAVGNVTPLQLLDWLMVNL
B5: TAF7L (protein, UniProt Q5H9L4 1-462, looked up)
Transcription initiation …: MECPEGQLPISSENDSTPTVSTSEVTSQQEPQILVDRGSETTYESSADIAGDEGTQIPADEDTQTDADSSAQAAAQAPENFQEGKDMSESQDEVPDEVENQFILRLPLEHACTVRNLARSQSVKMKDKLKIDLLPDGRHAVVEVEDVPLAAKLVDLPCVIESLRTLDKKTFYKTADISQMLVCTADGDIHLSPEEPAASTDPNIVRKKERGREEKCVWKHGITPPLKNVRKKRFRKTQKKVPDVKEMEKSSFTEYIESPDVENEVKRLLRSDAEAVSTRWEVIAEDGTKEIESQGSIPGFLISSGMSSHKQGHTSSEYDMLREMFSDSRSNNDDDEDEDDEDEDEDEDEDEDEDKEEEEEDCSEEYLERQLQAEFIESGQYRANEGTSSIVMEIQKQIEKKEKKLHKIQNKAQRQKDLIMKVENLTLKNHFQSVLEQLELQEKQKNEKLISLQEQLQRFLKK
B6: MAGE-A9 (protein, UniProt P43362 1-315, looked up)
Melanoma-associated antigen 9: MSLEQRSPHCKPDEDLEAQGEDLGLMGAQEPTGEEEETTSSSDSKEEEVSAAGSSSPPQSPQGGASSSISVYYTLWSQFDEGSSSQEEEEPSSSVDPAQLEFMFQEALKLKVAELVHFLLHKYRVKEPVTKAEMLESVIKNYKRYFPVIFGKASEFMQVIFGTDVKEVDPAGHSYILVTALGLSCDSMLGDGHSMPKAALLIIVLGVILTKDNCAPEEVIWEALSVMGVYVGKEHMFYGEPRKLLTQDWVQENYLEYRQVPGSDPAHYEFLWGSKAHAETSYEKVINYLVMLNAREPICYPSLYEEVLGEEQEGV
B7: SSX-2 (protein, UniProt Q16385 1-188, looked up)
Protein SSX2: MNGDDAFARRPTVGAQIPEKIQKAFDDIAKYFSKEEWEKMKASEKIFYVYMKRKYEAMTKLGFKATLPPFMCNKRAEDFQGNDLDNDPNRGNQVERPQMTFGRLQGISPKIMPKKPAEEGNDSEEVPEASGPQNDGKELCPPGKPTTSEKIHERSGPKRGEHAWTHRLRERKQLVIYEEISDPEEDDE

Test system: TSA
[1] = TSA expression rate in BLADDER cancer
[2] = TSA expression rate in Esophageal
[3] = TSA expression rate in GASTRIC cancer
[4] = TSA expression rate in LEUKEMIAS
[5] = TSA expression rate in LUNG cancer
[6] = TSA expression rate in MELANOMA
[7] = TSA expression rate in HEAD and NECK
[8] = TSA expression rate in PROSTATE cancer
[9] = TSA expression rate in LYMPHOMAS

Row | Molecule | TSA Expression Rate (ER) (BREAST) [%] | TSA Expression Rate (ER) (HCC) [%] | TSA Expression Rate (ER) (OVARIAN) [%] | TSA Expression Rate (ER) (PANCREATIC) [%] | Expression Rate (ER) % [1] [%] | Expression Rate (ER) % (TSA expression rate in CRC) [%] | Expression Rate (ER) % [2] [%] | Expression Rate (ER) % [3] [%] | Expression Rate (ER) % [4] [%] | Expression Rate (ER) % [5] [%] | Expression Rate (ER) % [6] [%] | TSA Expression Rate (ER) (BRAIN) [%] | TSA Expression Rate (ER) (LUNG) [%] | TSA Expression Rate (ER) (THYROID) [%] | Expression Rate (ER) % [7] [%] | Expression Rate (ER) % (TSA expression rate in Kidney) [%] | Expression Rate (ER) % [8] [%] | Expression Rate (ER) % [9] [%] | Expression Rate (ER) % (TSA expression rate in Cervical cancer) [%] | Expression Rate (ER) % (TSA expression rate in PEDIATRIC) [%]
1 | B1 | 26 | 60 | 0 | 0 | 9 | 24 | 0 | 0 | 4 | 17 | 70 | – | – | – | – | – | – | – | – | –
2 | B2 | 14 | – | – | – | 22 | 0 | 0 | – | – | – | 0 | 82 | 25 | 0 | 10 | 0 | 0 | – | – | –
3 | B3 | 37 | 25 | 15 | 31 | 2 | 6 | 2 | 14 | 11 | 1 | 16 | 14 | – | 0 | 12 | 8 | – | 39 | – | –
4 | B4 | 40 | 50 | 48 | – | – | 83 | – | 89 | – | – | – | – | 46 | – | – | – | – | – | – | –
5 | B5 | 0 | – | – | – | 10 | 0 | 0 | – | – | 9 | 21 | – | – | 0 | 10 | 0 | 0 | – | – | –
6 | B6 | 44 | 5 | 37 | – | 61 | – | 55 | – | 9 | – | 12 | – | – | – | 44 | 55 | – | – | – | –
7 | B7 | 7 | 46 | 7 | 4 | 13 | 5 | 0 | 3 | 12 | 10 | 35 | 4 | – | 8 | 17 | 2 | 28 | 16 | 4 | 44
